This is an account of results in PMC5777823 (eLife, 2017).

This test has as its target T1, CENP-L:CENP-N^230-C complex (human, UniProt Q8N0S6 1-344; Q96H22 230-339).
T1 construct: CENP-L, human; CENP-N, human, residues 230 to the C-terminus of the 339-residue protein; Form used in SEC and ITC, named without GST; tag probably cleaved with 3C protease; also called CENP-LN^230-C; CENP-LN^230-C dimer; source: Tnao38 insect cells (baculovirus, co-expressed), purified (GSH-Sepharose, Superdex 200)
The test can be described thus: ITC; 25°C, ITC200; 20 mM HEPES pH 7.5, 2.5% glycerol, 300 mM NaCl, 1 mM TCEP; protein in the cell at 5–8 µM, ligand at 50–80 µM; single site binding model. As to conditions: both partners purified. (In ITC the heat of successive injections is recorded.)

The term Kd denotes the free concentration of one partner at which half of the binding sites on the other are occupied at equilibrium, for simple one-to-one binding. High values mean lower affinity, low ones higher affinity.

T1 sequence (Q8N0S6 whole entry, chain 1 of 2, the tested form may be a part): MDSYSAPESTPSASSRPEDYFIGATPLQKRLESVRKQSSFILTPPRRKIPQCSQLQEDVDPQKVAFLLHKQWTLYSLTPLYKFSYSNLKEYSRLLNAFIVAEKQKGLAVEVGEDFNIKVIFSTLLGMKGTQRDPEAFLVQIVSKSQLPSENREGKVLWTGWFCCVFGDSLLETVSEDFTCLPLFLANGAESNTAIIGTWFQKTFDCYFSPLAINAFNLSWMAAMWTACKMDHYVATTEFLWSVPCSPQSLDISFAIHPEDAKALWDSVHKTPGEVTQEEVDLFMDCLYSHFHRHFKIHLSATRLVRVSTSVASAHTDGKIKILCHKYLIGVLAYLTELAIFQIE
T1 sequence (Q96H22 230-339, chain 2 of 2): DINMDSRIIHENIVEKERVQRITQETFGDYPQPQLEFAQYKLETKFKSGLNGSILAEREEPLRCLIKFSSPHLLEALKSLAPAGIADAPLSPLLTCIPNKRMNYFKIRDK

B1: CENP-C^225-364 (domain or fragment, human, UniProt Q03188 225-364, looked up)
chain: SDEEDKTSEGQERKPSGSSQNRIRDSEYEIQRQAKKSFSTLFLETVKRKSESSPIVRHAATAPPHSCPPDDTKLIEDEFIIDESDQSFASRSWITIPRKAGSLKQRTISPAESTALLQGRKSREKHHNILPKTLANDKHS
notes: pGEX-6P-2rbs; named without GST in the assays; source: bacteria, purified as described (Klare et al., 2015)
On to B1, for which the dissociation constant Kd turned out to be 1000 nM.
